Test results: the DeepSol protein solubility set

Test: soluble on expression in E. coli; label from the status in PepcDB or PDB records

| Sequence | soluble on expression in E. coli |
| --- | --- |
| MSLGKRLKEARQKAGYTQKEAAEKLNIGNNNLSNYERDYRDPDTDTLLKLSNLYNVSTDYLLGKDEVSKKNETDLLNKTINEAIQELKDEDTLLFMNDGEFDEETARLVKKALKNGIKFIDELKKKE | not soluble |
| MWRVCARRAQNVAPWAGLEARWTALQEVPGTPRVTSRSGPAPVRRNSVTTGYGGVRALCGWTPSSGATPRNRLLLQLLGSPGRRYYSLPPHQKVPLPSLSPTMQAGTIARWEKKEGDKINEGDLIAEVETDKATVGFESLEECYMAKILVAEGTRDVPIGAIICITVGKPEDIEAFKNYTLDSSAAPTPQAAPAPTPAATASPPTPSAQAPGSSYPPHMQVLLPALSPTMTMGTVQRWEKKVGEKLSEGDLLAEIETDKATIGFEVQEEGYLAKILVPEGTRDVPLGTPLCIIVEKEADISAFADYRPTEVTDLKPQAPPPTPPPVAAVPPTPQPLAPTPSAPCPATPAGPKGRVFVSPLAKKLAVEKGIDLTQVKGTGPDGRITKKDIDSFVPSKVAPAPAAVVPPTGPGMAPVPTGVFTDIPISNIRRVIAQRLMQSKQTIPHYYLSINVNMGEVLLVRKELNKILEGRSKISVNDFIIKASALACLKVPEANSSWMDTVIRQNHVVDVSVAVSTPAGLITPIVFNAHIKGVETIANDVVSLATKAREGKLQPHEFQGGTFTISNLGMFGIKNFSAIINPPQACILAIGASEDKLVPADNEKGFDVASMMSVTLSCDHRVVDGAVGAQWLAEFRKYLEKPITMLL | soluble |
| MSASGLLVEKSGPLSLIQDFGRFGLAHIGITQGGPVDDYAYSWANHLLGNRVNCSAIEITLGNACFIALQDCHLAICGGDLNASVDGHPIANWSDFSIKKGQKLQFGMAKNGLRAYLAVKGGFNVPEHLGSSSTVLREALGGLEANGNALKAGDVLPFDAHSLPNHKPRIMTFRFKPDYNLPITLRVIEGYQCDDFSVEAKEKFYSGSFAISPDSNRMGYRLEGNTVKPPYDGILSEGIALGAIQIPHDGNPIVLLNDHQTIGGYPKLGCVARIDLPRLAQAKPGQKVRFVKGDRQGLQDVWCQWAQFFGY | not soluble |
| MSLALNPAVAPIKSIEFIPVNYQASNWSQNTVVVKVTDENGVYGLGEADGSPDAILAYANIETEHKWLTNITEKAIGRLPIEINAIWDAMYDATQWQGMRGLGMFALSGIDMALYDLAGKQLGVPAYQLLGGTNKDKVHPYLTLYPAIPVDASLDVAIKGYAPLLEKAKAHNIRAVKVCVPIKADWSTKEVAYYLRELRGILGHDTDMMVDYLYRFTDWYEVARLLNSIEDLELYFAEATLQHDDLSGHAKLVENTRSRICGAEMSTTRFEAEEWITKGKVHLLQSDYNRCGGLTELRRITEMATANNVQVMPHNWKTGITSAAAIHYQFAVGNAPYFEYVHPEFCDGELRKYLVTPEAELVDGGFAKPTAPGLGIDLNQEFLASLEGHHHHHH | soluble |
| MAHHHHHHMRPKKSAFKLAQRGERHLLHGNSEVSNFYGISESGFSNSRPPPYLLRFDKCNDIIAYTNEVDSECLKQIKNLAMLDIIKGHVTILPDVHLGKGIIIGSVFLTKDFIIPNGVGVDIGCGVLCVKINKLKKKNLREHIINNIYKKIKRNVPLSFDSHEKEVFDAKKVLDGLVAKYASRNMAHIMTPRHLKQMGTLGGGNHFIEIAYDASDGGEEALSGNQSGETHQNDAPHSYTSEQNHSPESDIYILIHSGSRNIGKRTAEFYDELASQESKVKRNDLAYLDLKKEQGQNYLKDMQLCLEYAKCNRIYMMKIIERIIYEEVNCTLDWQSVINIHHNFCNQELVTYVHSGEVKREYMYVTRKGATSSKKNQLGVIPGNMKVGSYIVRGKGNKLSYSSCSHGCGRVLSRTHAKKIINQTDFVNIMRGVRCDTNARIRDEAPQAYKNLGQVLRNQDSLVHVVRRLLPLINVKGE | not soluble |
| MAKYCLKKTSKRVSCAKRYKIEKKVRDHNRKVKKEAKKNGTTNKKEKTISVPNSCPFKEEILVQAEQEREKIKVRQEAAKEAAKIHRIEKRKNNLPANFESMVAKASKQGTEFDKKVASAAEHEKFNTLDDKTIKAYASEVRKTVEIADVIIQVLDARDPLGSRSKSVEDQVLKGGKRLVLLLNKIDLVPRENVQKWLEYLRGQFPTIAFKASTQEQKSNIGRFNSAILNNTETSKCVGADIVMKILANYCRNKDIKTSIRVGVVGFPNVGKSSVINSLKRRKACNVGNLPGITKEIQEVELDKNIRLIDSPGVILVSQKDLDPIEVALKNAIRVDNLLDPIAPVHAILRRCSKETIMLHYNLADFNSVDQFLAQLARRIGKLRRGARPDVNAAAKRVLNDWNTGKLRYYTHPPEQGTAKEDIVVPAEVVSQFSKEFDIDAIAEEQNQIVEGLPMESDIIAPHNSDEEEDDDDEMETDVNEKKQTVTSGRKVKGPTKDDDKPVLPESLALEGNVQLNKLIKTAIKKQKKKSKKTANRADKLSDSLGNMLGGDAMEM | not soluble |
| MSLEYIIKNGIVYDPLNGINGEKMDICVKDGKIVESVSDNAKVIDASGCVVMPGGIDSHSHVAGAKVNVGRIFRPEDSKREIYAKKGLRTGTGFSVPSTYKTGYQYSEMGYTTVIEAAMPPLIARHTHEEFMETPQIDKAAMPLFGNNWMVLEYLKEGDIKACAAFVAWLLKAVKGFAIKIVNPGGTEAWGWGKNVHSLDDPVPYFDITPREIVRGLAEVNELLGLPHSIHVHPNNLGHPGNWETTLETMKCVEGVEAKPRVGERETSYYNTHCQFHSYGGTSWKDFESKAIEIAEYVNKSKHVVIDVGQVTLDETTTMTADGPMEYDLHMTNGLKWANCDVELETGSGVVPFIYSPKGPVYAVQWAIGLELFLNTNTDKVLLTTDHPNAGPFTRYPRVIAWLMSKKYRDEWLYNKVHKWAQQRSHVADADKEYDLYEIAKITRANQAKVLGLSETKGHLGVGAEADIAIYAIDPEEKDGKKIEKAFRYAKYVLKGGEVVVKDGNVVKEVFGDTIYVDVQVGEDLMNEVLKDVGEKFRRYYSVNLENYPVSDEYANSWRVIKIDATDINEGHHHHHH | not soluble |
| SASEVEEQIPVREEFFLCGGVETKIIKCGPWTNLFEKQDVSKPKQLIFIIPGNPGYSAFYVPFAKALYTLMKSRFPVWIISHAGFSVTPKDKKVLAAPQEESNAQKIEDVYGLNGQIEHKIAFLRAHVPKDVKLILIGHSVGTYMTLHVMKRVPELPVAHAFLLFPTIERMSESPNGKFATPFLCQFRYLLYATSYLLFKPCPEVIKSFIIQKLMGQMNIKLELPLTDILQPFCLA | soluble |
| MGSDKIHHHHHHCSTDFLDRNPLDKPSNEAFWRTEKDAMAAATGCYNGWFSMDEVIYADCASDNAYNPFTWEGWAVQAAGTATPTDPGYSYMGYGNMVRYNNFLENIHRPEMNEDLRKRLIAEVRFLRAWDYFQKVAHYGDVPLVTSVLEIKNANLPRTEKAKVVEFILKELKEIAPQLPESYSGSDVGRITRGAALTLKARLELFEHQYDDCMATCSEVMGLGYELFLDYKGLFKIANENNSEVILDVQYVESLYGNWVLGVLPPASVGGWCSINPTQSLVDAFECEDGKTIEESEVYDPKEPYLHRDPRLAVTVLAPGNLYEGKRYDPIDVKDPNGDYYAPYGRSKTGYLVRKYVDDLSDYADMWDCGMNAIVMRYAEVLLMYAECKIELNQIDNSVYDILDDIRTRAKMPVVDRTRYTGQEKLRELLRRERRVELAMEGLRWFDICRWKIGEQVLNGKVYGCLLGTVDPVTGALSLTNERIFVENRKFDPAKHYLWPIPQTVIDATPAIVQNPHY | not soluble |
| MGHHHHHHSHMKFRAKIVDGACLNHFTRISNMIAKLAKTCTLRISPDKLNFILCDKLANGGVSMWCELEQENFFNEFQMEGVSAENNEIYLELTSENLSRALKTAQNARALKIKLTNKHFPCLTVSVELLSMSSSSRIVTHDIPIKVIPRKLWKDLQEPVVPDPDVSIYLPVLKTMKSVVEKMKNISNHLVIEANLDGELNLKIETELVCVTTHFKDLGNPPLASESTHEDRNVEHMAEVHIDIRKLLQFLAGQQVNPTKALCNIVNNKMVHFDLLHEDVSLQYFIPALS | soluble |
| MSLKEFLIKKIEFTLFEVCIPDIGADPSGFGVWYEPGPGTPQKRFAVRIFTDEGPVGVYVPPRSRATVIMPAAIALAHFLIRKPALERERHYQTMRRITKHVGEAGIGALDIALWDLGGKISGQPISQMLGGHRRKLPSYASTIPGDEHPKGLSSSEAYADFAQQCLEIGYKGYKMHGWKEGNPQRESEMIRAVARQVGGSMDIMYDAACHLKTLTDAIRVGRVCDEHELLWYEDPYADGGLTIRGHRALKEKVRTPVMIGEHVRNPEIHTELLVSGATDFGRVDPDYDGGITGSYKAAMAAESLGYDVEVHSCGPAMRQLMAALSISNYYEINLVHPIGPNPWQLPVYLNGYSDELDCIDREGMVDVSQSPGLGVDYDWEWIEKNSLERIIVDKAKEGHHHHHH | soluble |
| MGSDKIHHHHHHMWLKAKKDAEAGAVSFSNQNGKFAEVSSVNTEEFSFRIYQVFGGGHVELSYDTVTTAVSVIYWFTASDVLETGITVVHTKPDNAAPELPGSYHFRPPFGWMNDPNGFGRFEGRPHLFYQHYSHGLRWNTMHWGHAVSSDYLRWRHLPIFLFPSEDLTTRPDKRGGAYSGSTIPLVEGSGIRVFFTEQVQDRIPEQQIQLTATSSDLIMAGQADVILAHRPDGQGLTPDFRDPYVFRGPDGLWKMLLGSQSDGGGVILLYETLDPTAASGWTYVGKLWVETRYKTTAIECPCLLPLDGPANARSTRWVLIYGLMHSEDPETGRKNLTMADVGWFDGKVFTKEFGQELDFGTDNYAFQAFLDGDSIIGIGWLANWADANPEIDFPTSMTLPRRIHYANGELLTPPIGAAESLRSHILDRTRLAAGERVTFINGAVEILIELASSDAAFELALDHPTVTLGLVSDETGLWIRHEDGRDGASPHYIAKGARASRIRIFLDYGSIEVFANRGRYVGTKRIEGFEPVRSALLRADPGAVVHATSWALKP | not soluble |
| MSLLGTGYLPDGTHMPGANPNLNIAAFLKENHIDLHTTVYPGGGLDPYTSVEFLNIVSKHCKTVFSNANEVLNTIPNSIYVPGIINTEFYHYNQKVSTKPIQMIFAAHNAERKGFPLLAQAFNKLDDQFHLHIVGNWENSLHLLTNNNYTFWGMLDLEKLKQLYEQSHVFISCSTKDKFAIDGFPTTAAADAMATGCILVSTNHRNDNRILKPGEDYLKIEADSNSILSNLFWIKMNFEKALEIGKSGAIKMDKYFNYKTNVNFKLSHIF | not soluble |
| MKQLTVEDAKQIELEILDYIDTLCKKHNINYIINYGTLIGAVRHEGFIPWDDDIDLSMPREDYQRFINIFQKEKSKYKLLSLETDKNYFNNFIKITDSTTKIIDTRNTKTYESGIFIDIFPIDRFDDPKVIDTCYKLESFKLLSFSKHKNIVYKDSLLKDWIRTAFWLLLRPVSPRYFANKIEKEIQKYSRENGQYMAFIPSKFKEKEVFPSGTFDKTIDLPFENLSLPAPEKFDTILTQFYGDYMTLPPEEKRFYSHEFHAYKLEDLEHHHHHH | soluble |
| MGSDKIHHHHHHMHDVLAKGILSSNNGMNIYRGCTHGCIYCDARSLCYGMDHIFEDIEVKTNVVELLEDTLKRKRKKCMIGTGAMSDPYIHLEEKLQNTRRCLEIIDKYGFGLSILTKSNRILRDLDLLKSINNKAKCVVEMTLTTYDEELCKIIEPNVSTTKERFEVLKIMRDNKIPTVVWLSPILPYINDTEENIRGILDYCIEAEVKGIIVFGIGVTLRNGNREYYYKNLDKQFKGLKEKYIRQYGNSYEVVSKNHEKLMKIIKETCNKNNIICDIREVFNYMRTFEEKNNEVQIGFDI | not soluble |
| MKKILLSAAVLLLSLGTYAQNNPTSLPTDIRIKKVVYRENDVIPVHGIPFTTTQIQFAKQERVLDIEGGDTTAWMVTYHPQLENMIFIKPTMFDSKTNMTVITNQRAYYFSLTSAKKLEQEPGKKTYALKFEYPQPQPVNTKNTTPNKTVHPKVVNTAYRFSGSPQLVPRHVFDDGKFTYFELSAQGSVPAIFAVDDQSGKESTVNTRREGKFIVVQRLAPQFTLRQGGLTASVFNTPEINRIRANRRPK | not soluble |
